In patent US20250011363A1, “OPTIMIZED SHORTENED PEPTIDE THAT BINDS TO ACETYLCHOLINE RECEPTOR, AND USE THEREOF” (SKINMED CO., LTD., priority 2021, published 2025):

molecular target: acetylcholine receptor (Homo sapiens, UniProt P02708); assay: SPR binding affinity (RU) of optimized 5mer/6mer/7mer peptides, Examples 6-7; details: 6mer-1 Top sequence; SPR; peptides tested at 10 μM
Method in brief: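 600 peptides per series (5mer, 6mer-1, 6mer-2), made from high- or low-frequency amino acid combinations, are screened by SPR at 10 μM; binding is recorded in RU.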

Sequence of acetylcholine receptor (P02708 21-457): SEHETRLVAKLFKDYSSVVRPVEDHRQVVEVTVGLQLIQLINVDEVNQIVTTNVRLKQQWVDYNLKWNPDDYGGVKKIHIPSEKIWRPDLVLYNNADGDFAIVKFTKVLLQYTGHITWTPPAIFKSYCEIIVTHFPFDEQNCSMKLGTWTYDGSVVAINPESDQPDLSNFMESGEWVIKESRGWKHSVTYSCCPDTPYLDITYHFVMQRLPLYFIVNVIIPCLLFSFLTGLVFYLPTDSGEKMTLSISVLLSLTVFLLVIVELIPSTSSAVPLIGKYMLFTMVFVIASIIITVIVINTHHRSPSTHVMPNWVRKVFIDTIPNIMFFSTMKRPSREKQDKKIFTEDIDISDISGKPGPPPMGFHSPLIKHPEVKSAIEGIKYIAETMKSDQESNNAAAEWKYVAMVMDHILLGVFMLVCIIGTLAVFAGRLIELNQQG

Row | Substance | Binding affinity [Ru]
1 | 6mer-1-297 (RRGFSK) | 139
2 | 6mer-1-397 (KRLILR) | 125
3 | 6mer-1-399 (KRWILR) | 125

same assay, conditions: 6mer-2 Top sequence; SPR; peptides tested at 10 μM

Row | Substance | Binding affinity [Ru]
4 | 6mer-2-32 (RRLCRK) | 139
5 | 6mer-2-54 (KGRRRR) | 124
6 | 6mer-2-88 (KSFQRR) | 141
7 | 6mer-2-10 (KVFSKK) | 124
8 | 6mer-2-188 (RGYTKR) | 142
9 | 6mer-2-133 (KRRLKK) | 145

same assay, conditions: SPR, Resonance Units; 5mer Bottom sequence (bottom combinations); peptides tested at 10 μM

Row | Substance | Binding affinity [Ru]
10 | 5mer-1042 (RCCAK) | 28
11 | 5mer-1055 (KHHEK) | 15
12 | 5mer-960 (RNPGK) | 14
13 | 5mer-643 (KHDGR) | 28
14 | 5mer-703 (KPNWR) | 22
15 | 5mer-681 (KDTMR) | 18
16 | 5mer-760 (RIWAR) | 19
17 | 5mer-672 (KHAPK) | 12
18 | 5mer-711 (KECIK) | 32
19 | 5mer-724 (KTTAK) | 14
20 | 5mer-1060 (KTHIK) | 29
21 | 5mer-737 (RINVR) | 13
22 | 5mer-667 (RDCHR) | 16

same assay, conditions: SPR, Resonance Units; peptides tested at 10 μM; 6mer-1 Bottom sequence

Row | Substance | Binding affinity [Ru]
23 | 6mer-1-1097 (RKNCNK) | 39
24 | 6mer-1-1107 (KRCPPR) | 36
25 | 6mer-1-1019 (KRDAWR) | 37
26 | 6mer-1-1038 (RRKKIR) | 21
27 | 6mer-1-1188 (RRMNER) | 41
28 | 6mer-1-1110 (RKFTER) | 24
29 | 6mer-1-1123 (RRDNVK) | 41
30 | 6mer-1-1194 (KKTHAK) | 22
31 | 6mer-1-1129 (RKDHAR) | 39

same assay, conditions: SPR, Resonance Units; peptides tested at 10 μM; 6mer-1 Bottom sequence (Table 11)

Row | Substance | Binding affinity [Ru]
32 | 6mer-1-616 (KKNTIK) | 31
33 | 6mer-1-720 (RRKHKR) | 11
34 | 6mer-1-789 (KRMMPK) | 19
35 | 6mer-1-623 (RRTDWR) | 21
36 | 6mer-1-665 (KKCDGK) | 21
37 | 6mer-1-680 (KKDPPR) | 27
38 | 6mer-1-734 (RRTHER) | 21

same assay, conditions: SPR, Resonance Units; peptides tested at 10 μM; 6mer-2 Bottom sequence

Row | Substance | Binding affinity [Ru]
39 | 6mer-2-719 (KIKPRR) | 29
40 | 6mer-2-918 (KNWMRK) | 35
41 | 6mer-2-823 (REDWRK) | 25
42 | 6mer-2-825 (KIHARK) | 11
43 | 6mer-2-820 (RPNNKK) | 24
44 | 6mer-2-655 (KIWFRR) | 31
45 | 6mer-2-638 (RCWAKR) | 30
46 | 6mer-2-689 (RDKERR) | 24
47 | 6mer-2-780 (KITIRK) | 31
48 | 6mer-2-644 (REPNRR) | 12
49 | 6mer-2-977 (REMKRK) | 30
50 | 6mer-2-912 (RAPIRR) | 27
51 | 6mer-2-806 (KHCVRK) | 30

same assay, conditions: SPR, Resonance Units; peptides tested at 10 μM; 6mer-2 Top sequence

Row | Substance | Binding affinity [Ru]
52 | 6mer-2-492 (RLIQKK) | 148
53 | 6mer-2-467 (KQYSRR) | 142
54 | 6mer-2-512 (RWFTRR) | 148
55 | 6mer-2-575 (RGYSRK) | 139

same assay, conditions: SPR, Resonance Units; peptides tested at 10 μM; 6mer-2 Top sequence (Table 12)

Row | Substance | Binding affinity [Ru]
56 | 6mer-2-274 (KLRTKR) | 148
57 | 6mer-2-214 (RWRSRK) | 139
58 | 6mer-2-245 (RSLSKR) | 135
59 | 6mer-2-268 (RQICKK) | 139
60 | 6mer-2-265 (RRQTRK) | 135
61 | 6mer-2-203 (KSRTKR) | 135
62 | 6mer-2-315 (RRQRRR) | 139
63 | 6mer-2-293 (KQQSKR) | 153

same assay, conditions: SPR, peptides at 10 μM; 6mer-2 Bottom sequence

Row | Substance | Binding affinity [Ru]
64 | 6mer-2-1153 (KHKPKR) | 27
65 | 6mer-2-1194 (KYCDRK) | 35
66 | 6mer-2-1188 (RAPARR) | 22
67 | 6mer-2-1184 (KFWVRR) | 22
68 | 6mer-2-1039 (RNHFRK) | 26
69 | 6mer-2-1135 (RANWKR) | 29
70 | 6mer-2-995 (KFWEKK) | 38
71 | 6mer-2-1019 (RNTWKK) | 23
72 | 6mer-2-1057 (RKKKKK) | 25

same assay, conditions: SPR, peptides tested at 10 μM; 5mer Top sequence

Row | Substance | Binding affinity [Ru]
73 | 5mer-318 (KRVCK) | 64
74 | 5mer-470 (KQRSK) | 57
75 | 5mer-319 (RVQTR) | 74
76 | 5mer-439 (KRVTR) | 65
77 | 5mer-28 (RLLSR) | 74
78 | 5mer-105 (RGQQR) | 50
79 | 5mer-115 (RWLLR) | 75
80 | 5mer-364 (RWITR) | 62
81 | 5mer-483 (RSISR) | 51
82 | 5mer-147 (RRYQK) | 66
83 | 5mer-506 (RGRLR) | 51
84 | 5mer-380 (KRYLK) | 82

same assay, conditions: SPR, peptides tested at 10 μM; 5mer Top sequence (top combinations)

Row | Substance | Binding affinity [Ru]
85 | 5mer-215 (RQYRR) | 79
86 | 5mer-556 (RVIYK) | 52
87 | 5mer-214 (KQQCK) | 79
88 | 5mer-576 (RLFRK) | 62
89 | 5mer-593 (KQYLK) | 77
90 | 5mer-266 (KSYQK) | 66

same assay, conditions: SPR, peptides tested at 10 μM; 6mer-1 Bottom sequence (Table 11)

Row | Substance | Binding affinity [Ru]
91 | 6mer-1-913 (KRFWWK) | 27
92 | 6mer-1-805 (KRDTMK) | 24
93 | 6mer-1-884 (KRYTKR) | 26
94 | 6mer-1-892 (RKTEKR) | 20
95 | 6mer-1-824 (KKMNIK) | 12
96 | 6mer-1-908 (KKFMVR) | 37

same assay, conditions: SPR, peptides tested at 10 μM; 6mer-1 Top sequence

Row | Substance | Binding affinity [Ru]
97 | 6mer-1-450 (RKVVYK) | 151
98 | 6mer-1-447 (RRRQQK) | 146
99 | 6mer-1-590 (RKGVTK) | 142
100 | 6mer-1-500 (RKLQSK) | 151
101 | 6mer-1-439 (KRRQTK) | 121
102 | 6mer-1-485 (RRWYRR) | 126
103 | 6mer-1-528 (KRSYTR) | 139

same assay, conditions: SPR, peptides tested at 10 μM; 6mer-1 Top sequence (top combinations)

Row | Substance | Binding affinity [Ru]
104 | 6mer-1-101 (KRWLYR) | 142
105 | 6mer-1-98 (KRLQCR) | 154
106 | 6mer-1-17 (KRVQCR) | 135
107 | 6mer-1-59 (KRLQCK) | 145
108 | 6mer-1-50 (KKVRTR) | 139
109 | 6mer-1-110 (KRQLLK) | 121
110 | 6mer-1-168 (KRWFCK) | 131
111 | 6mer-1-20 (KKSRYK) | 147
112 | 6mer-1-117 (KRLFTR) | 142
113 | 6mer-1-190 (RKLYYR) | 153

same assay, conditions: SPR; XRRGVRR-7mer and RRGVRRX-7mer

Row | Substance | Binding affinity, values relative to the RRGVRR sequence
114 | 3662 (RRGVRRA) [compound 3662] | 118

same assay, conditions: SPR; peptides tested at 10 μM; 5mer Bottom sequence

Row | Substance | Binding affinity [Ru]
115 | 5mer-890 (KKHFK) | 33
116 | 5mer-892 (RKPMR) | 29
117 | 5mer-850 (KYDIR) | 13
118 | 5mer-1166 (KTHEK) | 32
119 | 5mer-814 (RITMR) | 11
120 | 5mer-852 (KDSMK) | 22
